{"source": "patent US20140242095A1", "molecular_target": "NOD mouse SIRPα-Fc fusion protein (mouse (NOD strain)) (UniProt P97797)", "assay": "competitive ELISA", "data": [{"binder": "SIRP29-AM4-1 Fab (Fab, V domains shown) VH: EVQLVESGGGLVQPGGSLRLSCAASGFNISYYFIHWVRQAPGKGLEWVASVYSSFGYTYYADSVKGRFTISADTSKNTAYLQMNSLRAEDTAVYYCARFTFPGAMDGFFGAYLGSLDYWGQGTLVTVSS VL: DIQMTQSPSSLSASVGDRVTITCRASQSVSSAVAWYQQKPGKAPKLLIYSASSLYSGVPSRFSGSRSGTDFTLTISSLQPEDFATYYCQQAVNWVGALVTFGQGTKVEIK", "values": [{"measurement": "fold improvement in affinity against parent 29-AM3-35", "value": 2, "unit": "fold"}]}, {"binder": "SIRP29-AM4-5 Fab (Fab, V domains shown) VH: EVQLVESGGGLVQPGGSLRLSCAASGFNISYYFIHWVRQAPGKGLEWVASVYSSFGYTYYADSVKGRFTISADTSKNTAYLQMNSLRAEDTAVYYCARFTFPGLFDGFFGAYLGSLDYWGQGTLVTVSS VL: DIQMTQSPSSLSASVGDRVTITCRASQSVSSAVAWYQQKPGKAPKLLIYSASSLYSGVPSRFSGSRSGTDFTLTISSLQPEDFATYYCQQAVNWVGALVTFGQGTKVEIK", "values": [{"measurement": "fold improvement in affinity against parent 29-AM3-35", "value": 2, "unit": "fold"}]}]}
